From patent publication US20210171647A1 (WUXI BIOLOGICS SHANGHAI, published 2021)
Where a chain is given by its changes, count along the chain named.

How the values were obtained:
Assay in all cases: ELISA, antibody coated, OX40-ECD.His mutant supernatant; relative to silent alanine substitutions;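 also: captured OX40 mutant protein detected with HRP-labelled anti-His antibody, absorbance read-out, scaled to the mean signal of control mutants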
[1] = target: T1, human OX40-ECD.His D170A (human, UniProt P43489 29-214)
T1 construct: extracellular domain; not shown: C-terminal His-tag
T1 sequence (looked up): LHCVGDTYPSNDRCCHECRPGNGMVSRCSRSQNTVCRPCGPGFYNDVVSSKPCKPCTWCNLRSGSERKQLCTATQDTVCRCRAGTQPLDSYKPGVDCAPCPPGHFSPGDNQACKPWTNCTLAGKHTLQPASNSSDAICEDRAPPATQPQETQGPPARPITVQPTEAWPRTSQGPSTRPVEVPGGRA

[2] = target: T2, human OX40-ECD.His P83A (human, UniProt P43489 29-214)
T2 construct: extracellular domain; not shown: C-terminal His-tag
T2 sequence (looked up): T1 sequence (looked up) with P55A, A142D

[3] = target: T3, human OX40-ECD.His A150G (human, UniProt P43489 29-214)
T3 construct: extracellular domain; not shown: C-terminal His-tag
T3 sequence (looked up): T1 sequence (looked up) with A122G, A142D

[4] = target: T4, human OX40-ECD.His V63A (human, UniProt P43489 29-214)
T4 construct: extracellular domain; not shown: C-terminal His-tag
T4 sequence (looked up): T1 sequence (looked up) with V35A, A142D

[5] = target: T5, human OX40-ECD.His N138A (human, UniProt P43489 29-214)
T5 construct: extracellular domain; not shown: C-terminal His-tag
T5 sequence (looked up): T1 sequence (looked up) with N110A, A142D

[6] = target: T6, human OX40-ECD.His P143A (human, UniProt P43489 29-214)
T6 construct: extracellular domain; not shown: C-terminal His-tag
T6 sequence (looked up): T1 sequence (looked up) with P115A, A142D

[7] = target: T7, human OX40-ECD.His P37A (human, UniProt P43489 29-214)
T7 construct: extracellular domain; not shown: C-terminal His-tag
T7 sequence (looked up): T1 sequence (looked up) with P9A, A142D

[8] = target: T8, human OX40-ECD.His Q103A (human, UniProt P43489 29-214)
T8 construct: extracellular domain; not shown: C-terminal His-tag
T8 sequence (looked up): T1 sequence (looked up) with Q75A, A142D

[9] = target: T9, human OX40-ECD.His P121A (human, UniProt P43489 29-214)
T9 construct: extracellular domain; not shown: C-terminal His-tag
T9 sequence (looked up): T1 sequence (looked up) with P93A, A142D

[10] = target: T10, human OX40-ECD.His S161A (human, UniProt P43489 29-214)
T10 construct: extracellular domain; not shown: C-terminal His-tag
T10 sequence (looked up): T1 sequence (looked up) with S133A, A142D

Fold Change [1]: 1.01
Fold Change [2]: 0.918
Fold Change [3]: 0.96
Fold Change [4]: 0.886
Fold Change [5]: 0.73
Fold Change [6]: 0.92
Fold Change [7]: 1.01
Fold Change [8]: 0.974
Fold Change [9]: 0.974
Fold Change [10]: 0.945
B1: 1.134.9-u1-IgG1L (antibody, V domains shown)
VH: QVQLQESGPGLVKPSGTLSLTCAVSGGSISSYNWWSWVRQPPGKGLEWIGEIYHGGNTNYNPSLKSRVTMSVDNSKNQFSLKLSSVTAADTAVYYCARAPGDWGGSPYFDFWGQGTLVTVSS
VL: SSELTQDPAVSVALGQTVRITCQGDNLRTYYASWYQQKPGQAPILLIYGRNKRPSGIPDRFSGSSSGNTASLTITGAQAEDEAAYYCNSRDSSGNPVVFGGGTKLTVL
notes: fully human IgG1, lambda
